3 proteins from paper PMC6724696 (Molecular Biology of the Cell, 2019) can be followed below.

Test in all cases: crystal structure
Series [1] deals with the molecule itself.
Series [2] concerns the molecule itself. The source holds these as a separate data set.
Series [3] deals with the molecule itself. The source holds these as a separate data set.

Like-named read-outs stand apart in the source and are kept apart here. Where no end group is shown, it is not given here.

B1: Spc42^246–305 (domain or fragment, Saccharomyces cerevisiae, UniProt P36094 246-305, looked up)
chain: SDDDIMMYESAELKRVEEEIEELKRKILVRKKHDLRKLSLNNQLQELQSMMDGDDNIKLD
modifications: also: selenomethionine (SeMet) in the crystals
One may read the stoichiometry N as the number of molecules, sites or subunits per partner or assembly. In the case of B1, the “stoichiometry N” value in “crystal structure [1]” amounted to 2.

B2: H6-Spc42^11–130-3K2N (SeMet) (domain or fragment, Saccharomyces cerevisiae, UniProt P36094 11-130, looked up)
chain: SSKSSRLYDDYYNIPYQYSNPTPMNRDYNDVGSRINADKLVPEEYKRNTEFINKAVQQNKELNFKLREKQNEIFELKKIAETLRSKLEKYVDITKKLEDQNLNLQIKISDLEKKLSDANS
modifications: selenomethionine (SeMet)
Consider B2, for which the binding result in the series “crystal structure [2]” was “binds”.

For SDQDSRLKAIERELEVLTNYVMRSEDGNNDR (domain or fragment, Saccharomyces cerevisiae, UniProt P36094 181-211, looked up) [3H5I-Spc42^181–211 T193E,S195E], the “stoichiometry N” value in “crystal structure [3]” was 3.
